Test results published in US20140094416A1, “SPARC ANGIOGENIC DOMAIN AND METHODS OF USE” (Abraxis BioScience, LLC, priority 2009, published 2014).

Tests used:
[1] = test system: PC3 model; assay: Tumor volume in mice, PC3 model; assay type: in vivo
Method: Tumor volume was measured in mice being treated with Abraxane alone (15 mg/kg administered daily for five days), Abraxane and Sutent (the Sutent administered at 30 mg/kg daily for 8 weeks), Abraxane and exogenous SPARC (the SPARC at […] administered twice a week for eight weeks), and finally, Abraxane, Sutent and SPARC together.
FIG. 1 depicts a graph plotting tumor volume (mm^3) against time (days) for these test conditions.

[2] = test system: HUVEC; assay: HUVEC (3-D) tube formation assay; assay type: cell-based
Method: (§1) Recombinant human SPARC and genetically engineered variants were expressed and purified using HEK 293 cells maintained in hollow fiber bio-reactors. The angiogenic activity of rhSPARC and its variants was evaluated using a HUVEC tube formation assay and a HUVEC sprout formation bead assay.
(§2) In the HUVEC tube formation assay, rhSPARC was pro-angiogenic at 10 μg/mL and anti-angiogenic at 100 μg/mL. […] Additional rhSPARC variants with deletions and single/double amino acid substitutions tested in these assays included: Q3 deletion (BIO2), an inversion of the putative angiogenic domain (BIO5), a double K>Q substitution in the proposed angiogenic domain (BIO11), the genetic ablation of the putative catephsin K recognition sites (BIO8), and a proteolytic degradation product of rhSPARC. End terminal amino acid analysis indicated the angiogenic activity is localized to SEQ ID NO: 1.
FIG. 4 depicts the results of a HUVEC 3-D tube formation assay conducted with wild type SPARC and SPARC-D. The angiogenic behavior of wild type SPARC, as described in the previous example, can be seen in the graph; the angiogenic behavior increases as the concentration approaches 10 ug/ml and drops off as it approaches 100 ug/ml.

[3] = test system: HUVEC; assay: HUVEC sprout formation bead assay; assay type: cell-based; details: addition of rhSPARC
Method: as §1, §2

Molecule | efficacy of the SPARC/Abraxane combination (tumor volume) ([1]; Sutent 30 mg/kg daily for 8 weeks added to SPARC and Abraxane) | decrease in tumor volume ([1]; Sutent 30 mg/kg daily for 8 weeks with Abraxane, versus Abraxane alone) | tumor volume ([1]; exogenous SPARC 0.2 mg/ms twice a week for eight weeks with Abraxane, versus Abraxane alone) | effect on synergy of Abraxane and Sutent (tumor volume) ([1]; exogenous SPARC along with Abraxane and Sutent) | angiogenic activity ([2]; 10 μg/mL, listed as rhSPARC) | angiogenic activity ([2]; 10 μg/mL, listed as wild type SPARC) | angiogenic activity ([2]; 100 μg/mL, listed as rhSPARC) | angiogenic activity ([2]; 100 μg/mL, listed as wild type SPARC) | blood vessel maturity in sprout formation [3]
CCN(CC)CCNC(=O)c1c(C)[nH]c(/C=C2\C(=O)Nc3ccc(F)cc32)c1C [Sutent®, reference compound] | markedly improved | far greater decrease in tumor volume | – | – | – | – | – | – | –
SPARC: Secreted Protein, Acidic, Rich in Cysteines; recombinant human SPARC expressed and purified using HEK 293 cells (protein, listed as Homo sapiens) APQQEALPDETEVVEETVAEVTEVSVGANPVQVEVGEFDDGAEETEEEVVAENPCQNHHCKHGKVCELDENNTPMCVCQDPTSCPAPIGEFEKVCSNDNKTFDSSCHFFATKCTLEGTKKGHKLHLDYIGPCKYIPPCLDSELTEFPLRMRDWLKNVLVTLYERDEDNNLLTEKQKLRVKKIHENEKRLEAGDHPVELLARDFEKNYNMYIFPVHWQFGQLDQHPIDGYLSH | – | – | tumor volume is slightly greater | negates some of the synergistic affect | pro-angiogenic | increases | anti-angiogenic | drops off | more mature blood vessels well supported by pericytes
